One experiment has as its target streptavidin (Streptomyces avidinii, UniProt P22629). Conditions: biotin mimicking peptide binding streptavidin; read-out: affinity; cited from earlier work.
The test system of the next experiment is T cells. Kind of experiment: Phenotype assay: memory markers by flow cytometry on CAR-TF T cells after co-culture with CD19 positive SKOV3 target cells. To be noted: for proportion of naive and central memory cells (CM): co-expressed with anti-CD19 CAR (HD37), day 0 (post-transduction) and day 7 (6 days after 24 hour co-culture), CD4+ and CD8+ subpopulations; for CD62L expression / CD27 expression: co-expressed with CAR (HD37). It is filed as cell-based. An excerpt: A bicistronic construct was expressed in BW5 T cells as a single transcript which self-cleaves at the 2A site to yield a chimeric antigen receptor (CAR); and a transcription factor (TF). Control constructs were also generated which lack the 2A site and the transcription factor (“CAR-only”) or lack the CAR and 2A site (“TF-only”).
The CAR was an anti-CD19 CAR comprising an endodomain derived from CD3 zeta and from the co-stimulatory receptor 41BB.
T cells expressing the various CAR-TF combinations, together with the relevant CAR-only and TF-only controls were co-cultured with CD19 positive SKOV3 target cells for 24 hours before recovering and culturing the T cells until day 7. The expression of the following memory markers was analysed by flow cytometry at day 0 of the co-culture and day 7, to see whether cells expressing factors that bias them towards central memory are more nave post-transduction and remain more nave upon stimulation with antigen-bearing target cells.
Memory Markers—CCR7, CD45RA, CD62L, CD27
The cells were gated on CAR-expression (via RQR8 transduction marker) and various T cell and T-cell subset markers (CD3 and CD8) depending on the sub-population of interest.
(In general: In flow cytometry, cells or beads pass a laser one at a time.)

Where [1] appears, read: 6 days after a 24 hour co-culture with target cells, CD4+ and CD8+ T cells.

streptavidin, sequence (P22629 25-183): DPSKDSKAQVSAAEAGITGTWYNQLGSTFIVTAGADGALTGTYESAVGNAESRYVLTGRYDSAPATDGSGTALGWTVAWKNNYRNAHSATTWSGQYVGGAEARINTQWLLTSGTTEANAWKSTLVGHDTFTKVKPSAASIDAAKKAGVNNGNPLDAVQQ

In the case of “biotin mimicking peptide CHPQGPPC (SEQ ID NO: 31) [ccstreptag]”, the Kd at streptavidin is 230 nM. Regarding “biotin mimicking peptide DVEAWLDERVPLVET (SEQ ID NO: 26) (Biotin mimicking peptide, long nanotag)”, in the experiment with streptavidin, the Kd is 3.6 nM. Take “BACH2 S520A: mutant Bach2 with S to A substitution at position 520 (SEQ ID No. 9), co-expressed with anti-CD19 CAR”: in the experiment on T cells, the “proportion of naive and central memory cells (CM)” value (shortened to “proportion”) is “increase in the proportion of nave and central memory cells (CM)”. “Runx3 and CBFbeta: transcription factors Runx3 (SEQ ID No. 13) and CBF beta (SEQ ID No. 22), co-expressed with anti-CD19 CAR in T cells”: the CD62L expression result in the experiment on T cells (after transduction (day 0) and 6 days after the 24 hour co-culture) is on record as “upregulation of CD62L”. With “BACH2: Bach2 wild type transcription factor (SEQ ID No. 8), co-expressed with anti-CD19 CAR in T cells”, the “proportion” value in the experiment with T cells is “increase in the proportion of nave and central memory cells (CM)”. “biotin mimicking peptide WSHPQFEK (SEQ ID NO: 29) [streptagII]”: the Kd with streptavidin is 72000 nM.

As to “biotin mimicking peptide DVEAWLGAR (SEQ ID NO: 27) (Biotin mimicking peptide, short nanotag)”, the Kd in the experiment with streptavidin was 17 nM.

B1: EOMES: Eomesodermin transcription factor (SEQ ID No. 11), co-expressed with anti-CD19 CAR in T cells (protein, UniProt O95936 1-686, looked up)
Eomesodermin homolog: MQLGEQLLVSSVNLPGAHFYPLESARGGSGGSAGHLPSAAPSPQKLDLDKASKKFSGSLSCEAVSGEPAAASAGAPAAMLSDTDAGDAFASAAAVAKPGPPDGRKGSPCGEEELPSAAAAAAAAAAAAAATARYSMDSLSSERYYLQSPGPQGSELAAPCSLFPYQAAAGAPHGPVYPAPNGARYPYGSMLPPGGFPAAVCPPGRAQFGPGAGAGSGAGGSSGGGGGPGTYQYSQGAPLYGPYPGAAAAGSCGGLGGLGVPGSGFRAHVYLCNRPLWLKFHRHQTEMIITKQGRRMFPFLSFNINGLNPTAHYNVFVEVVLADPNHWRFQGGKWVTCGKADNNMQGNKMYVHPESPNTGSHWMRQEISFGKLKLTNNKGANNNNTQMIVLQSLHKYQPRLHIVEVTEDGVEDLNEPSKTQTFTFSETQFIAVTAYQNTDITQLKIDHNPFAKGFRDNYDSSHQIVPGGRYGVQSFFPEPFVNTLPQARYYNGERTVPQTNGLLSPQQSEEVANPPQRWLVTPVQQPGTNKLDISSYESEYTSSTLLPYGIKSLPLQTSHALGYYPDPTFPAMAGWGGRGSYQRKMAAGLPWTSRTSPTVFSEDQLSKEKVKEEIGSSWIETPPSIKSLDSNDSGVYTSACKRRRLSPSNSSNENSPSIKCEDINAEEYSKDTSKGMGGYYAFYTTP
modifications: co-expressed with anti-CD19 CAR
Consider B1, for which, in the experiment with T cells (setting [1]), the CD27 expression entry is reported as “significant upregulation of CD27” and the CD62L expression result was “do not show significant up-regulation of CD62L”.

B2: FOXO1: Forkhead box protein O1 transcription factor (SEQ ID No. 12), co-expressed with anti-CD19 CAR in T cells (protein, listed as Homo sapiens)
chain: MAEAPQVVEIDPDFEPLPRPRSCTWPLPRPEFSQSNSATSSPAPSGSAAANPDAAAGLPSASAAAVSADFMSNLSLLEESEDFPQAPGSVAAAVAAAAAAAATGGLCGDFQGPEAGCLHPAPPQPPPPGPLSQHPPVPPAAAGPLAGQPRKSSSSRRNAWGNLSYADLITKAIESSAEKRLTLSQIYEWMVKSVPYFKDKGDSNSSAGWKNSIRHNLSLHSKFIRVQNEGTGKSSWWMLNPEGGKSGKSPRRRAASMDNNSKFAKSRSRAAKKKASLQSGQEGAGDSPGSQFSKWPASPGSHSNDDFDNWSTFRPRTSSNASTISGRLSPIMTEQDDLGEGDVHSMVYPPSAAKMASTLPSLSEISNPENMENLLDNLNLLSSPTSLTVSTQSSPGTMMQQTPCYSFAPPNTSLNSPSPNYQKYTYGQSSMSPLPQMPIQTLQDNKSSYGGMSQYNCAPGLLKELLTSDSPPHNDIMTPVDPGVAQPNSRVLGQNVMMGPNSVMSTYGSQASHNKMMNPSSHTHPGHAQQTSAVNGRPLPHTVSTMPHTSGMNRLTQVKTPVQVPLPHPMQMSALGGYSSVSSCNGYGRMGLLHQEKLPSDLDGMFIERLDCDMESIIRNDLMDGDTLDFNFDNVLPNQSFPHSVKTTTHSWVSG
For the molecule B2, in the experiment with T cells (setting [1]), the CD27 expression result is reported as “upregulation of CD27, especially on CD8+ cells” and the CD62L expression entry is listed as “significant upregulation of CD62L”. Further, the “proportion” value in the experiment on T cells is “greater proportion of nave and central memory cells (CM)”.

These data come from patent US20200095590A1, “TRANSCRIPTION SYSTEM” (AUTOLUS LIMITED, priority 2016, published 2020).
